Measured values reported in patent publication US20200190209A1 (BLACK BELT THERAPEUTICS, published 2020).
Several values for one entry are separate records, joined by “and”; a condition that tells them apart may be missing. Equal entries are not always repeated. Where two headings read alike, the source gives them in different places. Each block holds one binder with its values, some of them ahead of it.

How the values were obtained:
[1] = target: T1, human CD38 (full length, on cells) (human, UniProt P28907 1-300); assay: cell-based or functional assay
[2] = target: T1, human CD38 (full length, on cells); assay: cell-based or functional assay; remark: listed apart in the source
[3] = target: T1, human CD38 (full length, on cells); assay: cell-based or functional assay; remark: listed apart in the source
[4] = target: T1, human CD38 (full length, on cells); assay: cell-based or functional assay; remark: listed apart in the source
[5] = target: T2, recombinant human CD38 his tagged (extracellular domain) (human, UniProt P28907 43-300); assay: Octet BLI affinity, rhCD38
T2 construct: also called rhCD38; rhCD38-his; not shown: Histidine tag

[6] = target: T2, recombinant human CD38 his tagged …; assay: SPR Biacore affinity, rhCD38-his
Method: (§1) Anti-human antibody was initially immobilised across all flow cells in analysis buffer (pH 7.4, 10mM HEPES, 150mM NaCl, 3mM EDTA, 0.05% Tween 20) to an RU of between 12,000-14,000 over 10 minutes. […] Dissociation was performed in analysis buffer over 10 minutes. Regeneration steps between sample concentrations were performed in 3M MgCl₂, three times for 0.5 minutes. A flow rate of 25 μl/min was maintained throughout the process. Kinetics data were fit using a global fit on the analysis software provided by Biacore with reference subtraction.

[7] = target: T1, human CD38 (full length, on cells); assay: flow cytometry, binding to Daudi cells
[8] = target: T2, recombinant human CD38 his tagged …; assay: Octet BLI, affinity, monovalent human CD38-HIS; IgG1
[9] = target: T2, recombinant human CD38 his tagged …; assay: SPR Biacore 2000; IgG1 captured, rhCD38-his as analyte
Method: as §1

[10] = target: T2, recombinant human CD38 his tagged …; assay: Octet BLI, avidity; rhCD38-his on Ni-NTA sensor, IgG1 in solution
Method: Avidity binding measurements of anti-CD38 Antibodies: Ni-NTA sensors were equilibrated off-line in assay buffer for 30 minutes and then monitored on-line for 60 seconds for baseline establishment. […] Then the antibody was associated at different concentrations (as described in FIGS. 25 and 30) for 30-50 minutes. Afterwards they were transferred to assay buffer for 20-30 min for off-rate measurement. Kinetics data were fit using a 1:1 binding model in the data analysis software provided by ForteBio.

[11] = target: T1, human CD38 (full length, on cells); assay: flow cytometry titration on human PBMC, gated on CD4-positive cells
[12] = target: T1, human CD38 (full length, on cells); assay: flow cytometry titration on human PBMC, gated on CD8-positive cells
[13] = target: T3, Cynomolgus monkey CD38 (on T cells) (Cynomolgus monkey, UniProt Q5VAN0 1-301); assay: flow cytometry titration on cynomolgus T cells, gated on CD4-positive cells
T3 construct: whole, on cells; also called cyno CD38
T3 sequence (Q5VAN0 whole entry): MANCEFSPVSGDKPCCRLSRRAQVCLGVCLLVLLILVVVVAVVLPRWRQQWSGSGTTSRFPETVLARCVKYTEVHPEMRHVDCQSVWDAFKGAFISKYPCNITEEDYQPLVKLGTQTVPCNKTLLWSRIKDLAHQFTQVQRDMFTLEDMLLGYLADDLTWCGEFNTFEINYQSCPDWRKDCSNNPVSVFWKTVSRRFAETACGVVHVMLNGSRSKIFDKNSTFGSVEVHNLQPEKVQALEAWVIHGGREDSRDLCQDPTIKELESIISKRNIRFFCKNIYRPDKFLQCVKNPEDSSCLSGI

[14] = target: T3, Cynomolgus monkey CD38 (on T cells); assay: flow cytometry titration on cynomolgus T cells, gated on CD8-positive cells
[15] = target: T2, recombinant human CD38 his tagged …; assay: Octet BLI, affinity, monovalent human CD38-HIS; IgG4
[16] = target: T1, human CD38 (full length, on cells); assay: cell-based or functional assay; remark: listed apart in the source
[17] = target: T2, recombinant human CD38 his tagged …; assay: Octet BLI affinity, rhCD38; remark: listed apart in the source
[18] = target: T2, recombinant human CD38 his tagged …; assay: SPR Biacore affinity, rhCD38-his; remark: listed apart in the source
Method: as §1

[19] = target: T1, human CD38 (full length, on cells); assay: flow cytometry, binding to Daudi cells; remark: listed apart in the source
[20] = target: T2, recombinant human CD38 his tagged …; assay: summary, human CD38 extracellular protein
[21] = target: T1, human CD38 (full length, on cells); assay: flow cytometry titration on human cells, gated on CD4-positive cells
Method: (§2) Unbound primary antibody was removed by washing followed by staining with a secondary antibody (5 μg/ml) 30 minutes on ice. All samples were stained in triplicates with appropriate CD3, CD4 and CD8 cross-reactive antibodies. Samples were measured by flow cytometry. For data analysis live cells were gated using FSC vs SSC parameters during sample acquisition. Mean fluorescence intensities (MFI) of stained cells were plotted on an XY chart, graphing MFI against the log of the concentration and the data fit to a non-linear regression curve from which the EC50 was calculated.

[22] = target: T1, human CD38 (full length, on cells); assay: flow cytometry titration on human cells, gated on CD8-positive cells
Method: as §2

[23] = target: T3, Cynomolgus monkey CD38 (on T cells); assay: flow cytometry titration on cynomolgus T cells, gated on CD4-positive and on CD8-positive cells
Method: as §2

[24] = target: T2, recombinant human CD38 his tagged …; assay: Octet BLI, affinity, monovalent human CD38-HIS; yeast produced

B1: aCD38-b-348 (human IgG1) (antibody, V domains shown)
VH: QLQLQESGPGLVKPSETLSLTCTVSGGSISSSDYYWGWIRQPPGKGLEWIGSIYYSGSTYYNPSLKSRVTISVDTSKNQFSLKLSSVTAADTAVYYCARGQYSSGWYAYPFDMWGQGTMVTVSS
VL: EIVLTQSPGTLSLSPGERATLSCRASQSVRSSYLAWYQQKPGQAPRLLIYGASSRATGIPDRFSGSGSGTDFTLTISRLEPEDFAVYYCQQDGNVYTFGGGTKVEIK
notes: Human IgG1
ADCC EC50, Daudi target cells [1]: 0.00032 µg/mL and 0.0008 µg/mL and 0.00042 µg/mL
CDC EC50, Daudi cells, 10% complement [2]: 0.17 µg/mL and 0.34 µg/mL and 0.26 µg/mL
CDC EC50, Raji cells, 10% complement [3]: 0.3 µg/mL
CDC EC50, Raji cells, 10% complement (repeat) [3]: 0.17 µg/mL
ADCC target lysis EC50 [4]: 0.0059 µg/mL
ADCC target lysis, max. % lysis [4]: 44%
Kd [5]: 5.79 nM
Kd [6]: 2 nM
EC50 [7]: 0.341 µg/mL
Max MFI [7]: 2320 MFI
Kd [8]: 8.81 nM
Kd [9]: 2 nM
Kd [10]: 0.177 nM
EC50 (read off the curve) [11]: ~0.4 nM
EC50 (read off the curve) [12]: ~0.4 nM
EC50 (read off the curve) [13]: ~0.7 µg/mL
EC50 (read off the curve) [14]: ~0.8 µg/mL

B7: aCD38-b-329-m6 (antibody, IgG1, V domains shown)
VH: QLQLQESGPGLVKPSETLSLTCTVSGGSISSSDYYWGWIRQPPGKGLEWIGSIYYSGSTYYNPSLKSRVTISVDTSKNQFSLKLSSVTAADTAVYYCARGQYSSGWYAYPFDMWGQGTMVTVSS
VL: EIVLTQSPGTLSLSPGERATLSCRASQSVRSSYLAWYQQKPGQAPRLLIYGASSRATGIPDRFSGSGSGTDFTLTISRLEPEDFAVYYCQQDEAVFTFGGGTKVEIK
ADCC target lysis EC50 [16]: 0.0024 µg/mL
ADCC target lysis, max. % lysis [16]: 47%
Kd [17]: 19.9 nM
Kd [18]: 4.7 nM
EC50 [19]: 0.651 µg/mL
Max MFI [19]: 2300 MFI

B9: aCD38-a-327 (human IgG1) (antibody, V domains shown)
VH: QVQLQESGPGLVKPSQTLSLTCTVSGGSISSGGYYWSWIRQHPGKGLEWIGYIYYSGSTYYNPSLKSRVTISVDTSKNQFSLKLSSVTAADTAVYYCARAKSELVLPYYYYMDVWGKGTTVTVSS
VL: not shown
notes: Human IgG1
ADCC EC50, Daudi target cells [1]: 0.03 µg/mL
ADCC max. lysis, Daudi target cells [1]: 55%
Kd [20]: ~1 nM
Kd [8]: 2.3 nM
Kd [9]: 1 nM
Kd [10]: 0.0181 nM

B10: aCD38-a-327 (IgG4) (antibody, V domains shown)
VH: QVQLQESGPGLVKPSQTLSLTCTVSGGSISSGGYYWSWIRQHPGKGLEWIGYIYYSGSTYYNPSLKSRVTISVDTSKNQFSLKLSSVTAADTAVYYCARAKSELVLPYYYYMDVWGKGTTVTVSS
VL: not shown
Kd [15]: 2.99 nM

B11: aCD38-a-306 (human IgG1) (antibody, V domains shown)
VH: not shown
VL: DIQMTQSPSSLSASVGDRVTITCRASQSISSYLNWYQQKPGKAPKLLIYGASSLQSGVPSRFSGSGSGTDFTLTISSLQPEDFATYYCQQRSSTPITFGGGTKVEIK
notes: Human IgG1
ADCC EC50, Daudi target cells [1]: 0.0013 µg/mL
ADCC max. lysis, Daudi target cells [1]: 43%
CDC EC50, Daudi cells, 10% complement [2]: 0.19 µg/mL
CDC max. lysis, Daudi cells, 10% complement [2]: 16.9%
Kd [9]: 1.2 nM
Kd [10]: 0.0735 nM
EC50 (read off the curve) [21]: ~0.4 µg/mL
EC50 (read off the curve) [22]: ~0.2 µg/mL
binding result [23]: no binding (tested: about 20 µg/ml (log 1.3))

B12: aCD38-a-306 (yeast produced) (antibody, V domains shown)
VH: not shown
VL: DIQMTQSPSSLSASVGDRVTITCRASQSISSYLNWYQQKPGKAPKLLIYGASSLQSGVPSRFSGSGSGTDFTLTISSLQPEDFATYYCQQRSSTPITFGGGTKVEIK
Kd [24]: 48 nM

More lines, now with the values ahead:

Kd [15]: 9.24 nM
B2: aCD38-b-348 (IgG4) (antibody, V domains shown)
VH: QLQLQESGPGLVKPSETLSLTCTVSGGSISSSDYYWGWIRQPPGKGLEWIGSIYYSGSTYYNPSLKSRVTISVDTSKNQFSLKLSSVTAADTAVYYCARGQYSSGWYAYPFDMWGQGTMVTVSS
VL: EIVLTQSPGTLSLSPGERATLSCRASQSVRSSYLAWYQQKPGQAPRLLIYGASSRATGIPDRFSGSGSGTDFTLTISRLEPEDFAVYYCQQDGNVYTFGGGTKVEIK

ADCC target lysis EC50 [4]: 0.0043 µg/mL
ADCC target lysis, max. % lysis [4]: 39%
Kd [5]: 55.1 nM
Kd [6]: 28 nM
EC50 [7]: 0.558 µg/mL
Max MFI [7]: 2100 MFI
B3: aCD38-b-348-m3 (antibody, IgG1, V domains shown)
VH: QLQLQESGPGLVKPSETLSLTCTVSGGSISSSDYYWGWIRQPPGKGLEWIGSIYYSGSTYYNPSLKSRVTISVDTSKNQFSLKLSSVTAADTAVYYCARGQYSSGWYAYPFDMWGQGTMVTVSS
VL: EIVLTQSPGTLSLSPGERATLSCRASQSVRSSYLAWYQQKPGQAPRLLIYGASSRATGIPDRFSGSGSGTDFTLTISRLEPEDFAVYYCQQDANVYTFGGGTKVEIK

ADCC target lysis EC50 [4]: 0.0014 µg/mL
ADCC target lysis, max. % lysis [4]: 38%
Kd [5]: 70.1 nM
Kd [6]: 27 nM
EC50 [7]: 0.299 µg/mL
Max MFI [7]: 2020 MFI
B4: aCD38-b-348-m4 (antibody, IgG1, V domains shown)
VH: QLQLQESGPGLVKPSETLSLTCTVSGGSISSSDYYWGWIRQPPGKGLEWIGSIYYSGSTYYNPSLKSRVTISVDTSKNQFSLKLSSVTAADTAVYYCARGQYSSGWYAYPFDMWGQGTMVTVSS
VL: EIVLTQSPGTLSLSPGERATLSCRASQSVRSSYLAWYQQKPGQAPRLLIYGASSRATGIPDRFSGSGSGTDFTLTISRLEPEDFAVYYCQQEGNVYTFGGGTKVEIK

ADCC target lysis EC50 [4]: 0.0025 µg/mL
ADCC target lysis, max. % lysis [4]: 44%
Kd [5]: 39.9 nM
Kd [6]: 6.8 nM
EC50 [7]: 0.499 µg/mL
Max MFI [7]: 2220 MFI
B5: aCD38-b-348-m2 (antibody, IgG1, V domains shown)
VH: QLQLQESGPGLVKPSETLSLTCTVSGGSISSSDYYWGWIRQPPGKGLEWIGSIYYSGSTYYNPSLKSRVTISVDTSKNQFSLKLSSVTAADTAVYYCARGQYSSGWYAYPFDMWGQGTMVTVSS
VL: EIVLTQSPGTLSLSPGERATLSCRASQSVRSSYLAWYQQKPGQAPRLLIYGASSRATGIPDRFSGSGSGTDFTLTISRLEPEDFAVYYCQQDSNVYTFGGGTKVEIK

ADCC target lysis EC50 [4]: 0.0028 µg/mL
ADCC target lysis, max. % lysis [4]: 38%
Kd [5]: 24.7 nM
Kd [6]: 63 nM
EC50 [7]: 0.485 µg/mL
Max MFI [7]: 1610 MFI
B6: aCD38-b-348-m1 (antibody, IgG1, V domains shown)
VH: QLQLQESGPGLVKPSETLSLTCTVSGGSISSSDYYWGWIRQPPGKGLEWIGSIYYSGSTYYNPSLKSRVTISVDTSKNQFSLKLSSVTAADTAVYYCARGQYSSGWYAYPFDMWGQGTMVTVSS
VL: EIVLTQSPGTLSLSPGERATLSCRASQSVRSSYLAWYQQKPGQAPRLLIYGASSRATGIPDRFSGSGSGTDFTLTISRLEPEDFAVYYCQQEANVYTFGGGTKVEIK
notes: also called aCD38-b-348-ml

ADCC target lysis EC50 [16]: 0.0035 µg/mL
ADCC target lysis, max. % lysis [16]: 43%
Kd [17]: 26 nM
Kd [18]: 4.9 nM
EC50 [19]: 0.745 µg/mL
Max MFI [19]: 2210 MFI
B8: aCD38-b-329-m7 (antibody, IgG1, V domains shown)
VH: QLQLQESGPGLVKPSETLSLTCTVSGGSISSSDYYWGWIRQPPGKGLEWIGSIYYSGSTYYNPSLKSRVTISVDTSKNQFSLKLSSVTAADTAVYYCARGQYSSGWYAYPFDMWGQGTMVTVSS
VL: EIVLTQSPGTLSLSPGERATLSCRASQSVRSSYLAWYQQKPGQAPRLLIYGASSRATGIPDRFSGSGSGTDFTLTISRLEPEDFAVYYCQQDSAVFTFGGGTKVEIK
